According to the supplement of paper PMC7125110:
± gives the standard error. For part of these data: Fewer inactive variants are shown than the library holds.

B1: glmS ribozyme (parent)
chain: AUAAAAGCGCCAGAACUACAGAAAUGUAGUUGACGAGGAGGAGGUUUAUCGAAUUUUCGGCGGAUGCCUCCAAA

Tests used:
Details in all cases: with glucosamine-6-phosphate
[1] = variants of: B1; assay: kcat; higher = faster cleavage; RNA array
Procedure, shortened: (§1)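 kobs was derived by fitting per-tile medians to one- or two-exponential decays after normalising signals to baseline and to non-cleaving reference variants. Those signals came from barcoded ribozyme variants transcribed in situ by E. coli RNA polymerase on sequenced MiSeq chips, followed through a hybridised Cy3 probe at 37 °C and imaged over ~14 h. Glucosamine-6-phosphate (40 μM to 10 mM) in HEPES/KCl/Mg(OAc)2 buffer was flowed in. Weighted Michaelis–Menten fits across concentrations then gave kcat and KM.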

[2] = variants of: B1; assay: self-cleavage kobs at 2500 uM GlcN6P; higher = faster cleavage; RNA array
Procedure, shortened: as §1

[3] = variants of: B1; assay: self-cleavage kobs at 10000 uM GlcN6P; higher = faster cleavage; RNA array
Procedure, shortened: as §1

[4] = variants of: B1; assay: KM; higher = weaker cofactor use; RNA array
Procedure, shortened: as §1

[5] = variants of: B1; assay: self-cleavage kobs at 640 uM GlcN6P; higher = faster cleavage; RNA array
Procedure, shortened: as §1

[6] = variants of: B1; assay: self-cleavage kobs at 160 uM GlcN6P; higher = faster cleavage; RNA array
Procedure, shortened: as §1

[7] = variants of: B1; assay: self-cleavage kobs at 40 uM GlcN6P; higher = faster cleavage; RNA array
Procedure, shortened: as §1

Variant	kcat [1]	self-cleavage kobs at 2500 uM GlcN6P [2]	self-cleavage kobs at 10000 uM GlcN6P [3]	KM [4]	self-cleavage kobs at 640 uM GlcN6P [5]	self-cleavage kobs at 160 uM GlcN6P [6]	self-cleavage kobs at 40 uM GlcN6P [7]
A33C U47C	4.24e-05 ± 1.3e-05 s⁻¹	5.42e-05 ± 1.3e-05 s⁻¹	3.37e-05 ± 1e-05 s⁻¹	–	–	–	–
A33C U47A	0.000256 ± 2.1e-05 s⁻¹	0.000136 ± 4.7e-05 s⁻¹	0.000195 ± 3.4e-05 s⁻¹	2950 ± 550 µM	4.21e-05 ± 1.7e-05 s⁻¹	–	–
A33G C68G	3.02e-05 ± 6e-06 s⁻¹	–	–	–	3.59e-05 ± 1.5e-05 s⁻¹	3.17e-05 ± 1.3e-05 s⁻¹	–
G32A G60C	< 1e-05 s⁻¹	–	< 1e-05 s⁻¹	183 ± 55 µM	–	–	–
G32A G60A	< 1e-05 s⁻¹	–	–	–	< 1e-05 s⁻¹	< 1e-05 s⁻¹	< 1e-05 s⁻¹
A36U U45A C50G	< 1e-05 s⁻¹	< 1e-05 s⁻¹	–	–	< 1e-05 s⁻¹	–	–
G37A G40A	0.000755 ± 0.00012 s⁻¹	0.000366 ± 7.6e-05 s⁻¹	0.000583 ± 9.3e-05 s⁻¹	2830 ± 820 µM	0.000135 ± 3.7e-05 s⁻¹	3.73e-05 ± 1.3e-05 s⁻¹	–
A33U U57A	< 1e-05 s⁻¹	–	–	–	–	–	–
G37C A64U C68G	1.68e-05 ± 1.7e-06 s⁻¹	–	–	29.1 ± 13 µM	–	–	–
G32A U45A	0.00555 ± 0.00055 s⁻¹	0.003 ± 0.001 s⁻¹	0.00438 ± 0.00057 s⁻¹	2580 ± 370 µM	0.00117 ± 0.00024 s⁻¹	0.000267 ± 6.7e-05 s⁻¹	9.16e-05 ± 1.5e-05 s⁻¹
G32A U45G	0.000591 ± 0.00017 s⁻¹	0.000204 ± 5.3e-05 s⁻¹	0.000488 ± 5.2e-05 s⁻¹	–	0.000212 ± 4.3e-05 s⁻¹	–	–
G38A C61A G66U U69C C70U	4.44e-05 ± 6.1e-06 s⁻¹	–	–	–	–	–	–
G32U U55G U56A	0.000802 ± 4.9e-05 s⁻¹	0.000255 ± 4.3e-05 s⁻¹	0.000509 ± 0.00011 s⁻¹	5530 ± 450 µM	8.29e-05 ± 1.1e-05 s⁻¹	–	–
G32A U49A U54G G59A C67U	1.76e-05 ± 5.6e-06 s⁻¹	–	–	–	–	–	–
G37A A53U	0.00237 ± 0.00046 s⁻¹	0.000924 ± 0.0001 s⁻¹	0.00185 ± 0.00023 s⁻¹	3520 ± 930 µM	0.000367 ± 3.5e-05 s⁻¹	9.91e-05 ± 1.2e-05 s⁻¹	4.73e-05 ± 1.1e-05 s⁻¹
G37A A53C	0.000609 ± 7.9e-05 s⁻¹	0.00027 ± 3.6e-05 s⁻¹	0.000468 ± 5.8e-05 s⁻¹	3030 ± 740 µM	0.00012 ± 2.1e-05 s⁻¹	–	–
A36C G59A	< 1e-05 s⁻¹	< 1e-05 s⁻¹	< 1e-05 s⁻¹	–	–	–	–
G35A G37A	< 1e-05 s⁻¹	–	–	–	–	< 1e-05 s⁻¹	–
G32U U54C	0.000958 ± 0.00028 s⁻¹	0.000272 ± 3.3e-05 s⁻¹	0.000665 ± 8.6e-05 s⁻¹	5300 ± 2300 µM	0.000126 ± 1.5e-05 s⁻¹	–	–
G32C C71A	1.79e-05 ± 3.7e-06 s⁻¹	–	–	–	–	–	–
A33U U54A C68A	2.8e-05 ± 3.4e-06 s⁻¹	–	–	–	–	–	–
G32A C70G	0.000111 ± 1.6e-05 s⁻¹	6.07e-05 ± 2.4e-05 s⁻¹	0.00011 ± 1.3e-05 s⁻¹	–	9.43e-05 ± 1.5e-05 s⁻¹	2.97e-05 ± 1.1e-05 s⁻¹	–

Variant	kcat [1]	self-cleavage kobs at 2500 uM GlcN6P [2]	self-cleavage kobs at 10000 uM GlcN6P [3]	KM [4]	self-cleavage kobs at 640 uM GlcN6P [5]	self-cleavage kobs at 160 uM GlcN6P [6]	self-cleavage kobs at 40 uM GlcN6P [7]
A33U G66C	1.44e-05 ± 2.1e-06 s⁻¹	–	–	3040 ± 1500 µM	–	–	–
A33U G66A	6.76e-05 ± 1.2e-06 s⁻¹	3.2e-05 ± 1e-05 s⁻¹	5.28e-05 ± 6.4e-06 s⁻¹	2790 ± 180 µM	–	–	–
A33U C61U	< 1e-05 s⁻¹	–	–	–	< 1e-05 s⁻¹	–	–
G32C A52G	1.94e-05 ± 5.2e-06 s⁻¹	–	–	–	–	–	–
G35U G37A G60U	< 1e-05 s⁻¹	< 1e-05 s⁻¹	–	–	–	–	–
G38A C58U C68G	4.92e-05 ± 1.7e-05 s⁻¹	6.16e-05 ± 2.5e-05 s⁻¹	–	–	5.5e-05 ± 2.5e-05 s⁻¹	–	–
C34U A48G C68A	< 1e-05 s⁻¹	< 1e-05 s⁻¹	–	–	–	–	< 1e-05 s⁻¹
G32A G40C A48U	< 1e-05 s⁻¹	–	–	–	–	–	< 1e-05 s⁻¹
A36U A64C	< 1e-05 s⁻¹	< 1e-05 s⁻¹	< 1e-05 s⁻¹	–	–	< 1e-05 s⁻¹	< 1e-05 s⁻¹
C34A U46G	< 1e-05 s⁻¹	< 1e-05 s⁻¹	< 1e-05 s⁻¹	–	< 1e-05 s⁻¹	–	< 1e-05 s⁻¹
G35U G37C G60U	< 1e-05 s⁻¹	–	–	–	< 1e-05 s⁻¹	–	< 1e-05 s⁻¹
C34G G37U	< 1e-05 s⁻¹	–	< 1e-05 s⁻¹	–	< 1e-05 s⁻¹	–	–
G37C A64G	9.23e-05 ± 9.1e-06 s⁻¹	4.35e-05 ± 9.1e-06 s⁻¹	7.49e-05 ± 8e-06 s⁻¹	2450 ± 790 µM	–	–	–
G32U A33C	< 1e-05 s⁻¹	–	–	–	< 1e-05 s⁻¹	< 1e-05 s⁻¹	–
C34U C68A	1.2e-05 ± 1.8e-06 s⁻¹	–	–	–	–	–	–
A33C G40A	2.31e-05 ± 2.6e-06 s⁻¹	–	–	4070 ± 1400 µM	–	–	–
A33U C50U C68U	2.95e-05 ± 1.3e-05 s⁻¹	–	–	–	< 1e-05 s⁻¹	–	–
C34A G37U C68U	< 1e-05 s⁻¹	–	–	–	–	–	< 1e-05 s⁻¹
G37C U69A	1.84e-05 ± 4.8e-06 s⁻¹	–	–	–	–	–	–
A33C U69A	< 1e-05 s⁻¹	–	–	–	< 1e-05 s⁻¹	< 1e-05 s⁻¹	–
A33C A39C	3.87e-05 ± 3.3e-06 s⁻¹	3.92e-05 ± 8e-06 s⁻¹	3.54e-05 ± 7.3e-06 s⁻¹	–	–	–	–
A33C A39U	0.000401 ± 2.3e-05 s⁻¹	0.000146 ± 1.9e-05 s⁻¹	0.000289 ± 1.9e-05 s⁻¹	4000 ± 470 µM	5.65e-05 ± 7.9e-06 s⁻¹	–	–
